Assay [1] addresses T1, hu-CD96 (soluble, isoform 2 extracellular domain) (human, UniProt P40200 22-516, biotinylated in Octet and blocking ELISA).
T1 construct: the assays name only hu-CD96; also called hCD96; biotinylated hu-CD96
T1 sequence: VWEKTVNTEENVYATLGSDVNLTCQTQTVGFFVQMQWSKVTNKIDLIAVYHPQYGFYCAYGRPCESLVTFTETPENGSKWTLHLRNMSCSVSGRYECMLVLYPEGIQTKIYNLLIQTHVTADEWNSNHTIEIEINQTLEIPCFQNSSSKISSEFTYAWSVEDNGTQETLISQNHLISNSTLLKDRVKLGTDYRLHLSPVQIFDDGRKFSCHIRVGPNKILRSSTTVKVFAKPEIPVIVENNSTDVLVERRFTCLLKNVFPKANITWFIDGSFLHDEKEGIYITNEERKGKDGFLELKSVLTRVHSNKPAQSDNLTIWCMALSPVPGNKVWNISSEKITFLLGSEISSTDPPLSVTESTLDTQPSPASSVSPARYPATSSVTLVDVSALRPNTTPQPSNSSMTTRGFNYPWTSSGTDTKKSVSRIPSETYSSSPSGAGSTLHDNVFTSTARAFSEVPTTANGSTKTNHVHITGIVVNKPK
Briefly: BLI (Octet), biotin-CD96 on SA, Fab analyte. (Biolayer interferometry detects binding as a change in optical thickness at a sensor tip.)

Assay [2] addresses T2, cy-CD96 (soluble, extracellular domain) (cynomolgus monkey, UniProt P40200 22-516 (human entry), biotinylated in Octet and blocking ELISA).
T2 construct: the assays name only cy-CD96; also called biotinylated cy-CD96
T2 chain: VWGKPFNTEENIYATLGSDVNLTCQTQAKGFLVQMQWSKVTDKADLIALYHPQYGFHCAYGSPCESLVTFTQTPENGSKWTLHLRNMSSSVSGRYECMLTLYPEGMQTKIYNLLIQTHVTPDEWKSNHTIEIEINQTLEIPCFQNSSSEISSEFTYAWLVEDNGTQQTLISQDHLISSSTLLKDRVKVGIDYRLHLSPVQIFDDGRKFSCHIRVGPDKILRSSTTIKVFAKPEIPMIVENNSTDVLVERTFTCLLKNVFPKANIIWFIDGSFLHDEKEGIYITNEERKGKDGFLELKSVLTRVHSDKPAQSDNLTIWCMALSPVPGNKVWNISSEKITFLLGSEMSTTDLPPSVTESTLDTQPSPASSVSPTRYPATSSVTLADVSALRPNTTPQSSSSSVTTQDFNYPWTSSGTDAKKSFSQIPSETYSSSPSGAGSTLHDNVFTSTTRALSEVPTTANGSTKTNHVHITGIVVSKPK
Briefly: BLI (Octet), biotin-CD96 on SA, Fab analyte.

The target in assay [3] is T3, hu-CD96 Fc (human, biotinylated in Table 16).
T3 construct: also called biotinylated hu-CD96-Fc
Put plainly: SPR (Biacore), Fab.

The target of assay [4] is T1, hu-CD96 (soluble, isoform 2 …). Put plainly: CD155 blocking ELISA. For orientation: In an ELISA, binding on a coated surface is turned into a signal by an enzyme label.
The target in assay [5] is hu-CD96D1 D3-hFc (human). Put plainly: ELISA, coated CD96D1D3-hFc. The protocol: (§1) CD96 binding of purified hybridoma antibodies: The hu-CD96 and cy-CD96 antigen binding ELISA was performed on the purified hybridoma antibodies. Briefly, 96-well MAXISORP® flat bottom plates (Thermo Fisher Scientific, Waltham, MA; Cat #439454) were coated overnight at 4° C. with 0.5 µg/mL of hu-CD96D1 D3-hFc and cynomolgus monkey CD96D1 D3-hFc in PBS. After removing the coating solution, unspecific binding was blocked by PBS containing 1% bovine serum albumin (blocking buffer) and incubation at room temperature for one hour. Plates were then washed three times with PBS and 0.05% TWEEN®-20 (wash buffer). Serial dilution of purified antibodies in PBS containing 0.5% BSA and 0.05% Tween 20 (ELISA buffer) was added to individual wells followed by incubation at room temperature for one hour with agitation. Plates were washed three times with wash buffer, then 100 µL/well of anti-mouse IgG-HRP (Thermo Fisher Scientific, Waltham, MA; Cat #626520) in ELISA buffer was added. […] Enzymatic color development was stopped with 50 µL/well of TMB stop solution (VWR/Avantor, Radnor, PA, USA; Cat #95059-200). Plates were analyzed with a SpectraMax i3X plate reader (Molecular Devices LLC, San Jose, CA, USA) at 450 nm.

In assay [6] the target is T4, cynomolgus monkey CD96D1 D3-hFc (cynomolgus monkey).
T4 construct: also called cy-CD96D1 D3
Put plainly: ELISA, coated CD96D1D3-hFc. The protocol: as §1

Assay [7] has as its target T5, recombinant hu-CD96 (M1-M503-polyHis) (human, UniProt P40200 22-519).
T5 construct: also called hu-CD96-his
T5 sequence: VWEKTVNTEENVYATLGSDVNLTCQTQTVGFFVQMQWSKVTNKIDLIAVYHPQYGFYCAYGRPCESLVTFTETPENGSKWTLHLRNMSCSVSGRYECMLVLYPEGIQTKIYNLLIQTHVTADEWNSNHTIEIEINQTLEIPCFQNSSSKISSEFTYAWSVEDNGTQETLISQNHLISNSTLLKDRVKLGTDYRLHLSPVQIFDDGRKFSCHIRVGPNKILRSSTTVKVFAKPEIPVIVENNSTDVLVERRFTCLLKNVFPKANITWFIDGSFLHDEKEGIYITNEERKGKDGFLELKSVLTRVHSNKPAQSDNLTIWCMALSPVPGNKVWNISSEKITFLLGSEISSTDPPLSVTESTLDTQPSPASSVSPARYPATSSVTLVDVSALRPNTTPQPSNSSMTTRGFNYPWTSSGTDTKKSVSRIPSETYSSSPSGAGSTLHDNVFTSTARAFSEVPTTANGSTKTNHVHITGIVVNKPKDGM
Put plainly: ELISA, blocks hu-CD96-his binding to coated CD155-hFc. The procedure: as §1
CD155 receptor blocking of purified hybridoma antibodies: Human CD155 blocking ELISA was performed on purified hybridoma antibodies following the same protocol as described for CD96 (above), except that serial dilution of purified antibodies 50 µL/well (starting at 1 µM, 1:5 dilution) in assay buffer was added into the reaction.

Substitutions are numbered along the chain they refer to. In names and notes the source's numbering stands.

T4 sequence (chain, as listed by the source limits assumed): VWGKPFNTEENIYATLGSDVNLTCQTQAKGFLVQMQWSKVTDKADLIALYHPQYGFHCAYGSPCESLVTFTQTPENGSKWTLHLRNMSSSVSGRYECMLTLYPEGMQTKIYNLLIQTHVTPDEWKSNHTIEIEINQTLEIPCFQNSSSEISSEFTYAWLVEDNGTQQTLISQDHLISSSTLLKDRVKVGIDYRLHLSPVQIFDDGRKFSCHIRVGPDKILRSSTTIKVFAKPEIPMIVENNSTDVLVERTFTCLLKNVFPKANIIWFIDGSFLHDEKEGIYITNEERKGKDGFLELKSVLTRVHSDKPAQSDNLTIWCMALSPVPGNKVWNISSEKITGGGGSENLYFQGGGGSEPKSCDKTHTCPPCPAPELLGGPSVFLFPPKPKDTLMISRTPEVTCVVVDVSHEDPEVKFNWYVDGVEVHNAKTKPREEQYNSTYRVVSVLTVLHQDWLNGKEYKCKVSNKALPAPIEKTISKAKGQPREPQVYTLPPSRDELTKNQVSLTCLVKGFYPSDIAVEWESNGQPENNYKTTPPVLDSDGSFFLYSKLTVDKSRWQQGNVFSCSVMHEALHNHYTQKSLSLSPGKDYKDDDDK

B1: mAb1.v7.NGS7 Fab (Fab, V domains shown)
VH: EVQLVQSGAEVKKPGASVKVSCKASGFTFTNNWMHWVRQAPGQGLEWIGMIHPNSGITNINEKFKNRVTMTTDTSTSTAYMELRSLRSEDTAVYYCRSDGVYEGYFDYWGQGTLVTVSS
VL: DIQLTQSPSSLSASVGDRVTITCKASQNVGTAIVWYQQKPGKAPKVLIYSASTRYTGVPSRFSGSGSGTDFTLTISSLQPEDFATYYCQQYSSSPLTFGQGTKVEIK
notes: also called T97V
As to B1, the Kd – broadly, the concentration at which binding is half-saturated – came out at 5.61 nM in assay [1] and 383 nM in assay [2].

B2: mAb1.v7.NGS8 Fab (Fab, V domains shown)
VH: B1 VH with W33F, P53A, V101I
VL: B1 VL
notes: Fab with 8xHis tag; also called W33F/P52aA/T97I
For B2, in assay [3], the Kd came out at 1.8 nM; the koff (commonly the rate constant with which the complex falls apart) stood at 2.53e-05 s⁻¹; the kon (in general, a measure of how fast the partners come together) is 16700 M⁻¹ s⁻¹. Further, the IC50 (commonly the midpoint of a concentration-inhibition curve) in assay [4] was found to be 0.2 nM. The Kd in assay [1] amounted to 0.1 nM.

B3: 16D9, purified hybridoma antibody (antibody, V domains shown)
VH: QVQLQQSGPELVKPGASVKISCKASGYNFNDYYINWVNQRPGQGLEWIGWIFPGRIITYYNEKFKGKATLTVDTSSNTAYMLLSSLTSEDSAVYFCARGVGEGFDYWGQGTTLTVSS
VL: ENVLTQSPAIMSATLGEKVTMNCRASSNVKYMYWYQQKSGVSPKLWIYYTSNLASGVPTRFSGSGSGTSYSLTISSVEAEDAATYYCQQFTSSPLTFGAGTKLELK
notes: murine hybridoma IgG
In the case of B3, the EC50 – broadly, the concentration giving half of the maximal effect – in assay [5] was found to be 0.05 nM. In addition, the binding result in assay [6] is “no binding”. In addition, the IC50 in assay [7] worked out at 1.06 nM.

B4: 10H5, purified hybridoma antibody (antibody, V domains shown)
VH: QVQLQQSGADLARPGASIKLSCKASGYTFTGYGVTWVKQSTGQGLDWIGEIYPGTVITYYNAKFKGKATLTADKSSSTAYMELRSLTSEDSAVYFCARGLGRAMDYWGQGTSVTVSS
VL: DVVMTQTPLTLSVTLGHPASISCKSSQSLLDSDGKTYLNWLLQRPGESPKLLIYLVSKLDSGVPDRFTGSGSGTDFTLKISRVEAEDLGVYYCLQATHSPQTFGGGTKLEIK
notes: murine hybridoma IgG
Take B4: the EC50 in assay [5] turned out to be 0.05 nM. Besides, the IC50 in assay [7] stood at 0.958 nM.

B5: 12F8 (clone 12F8.12B5), purified hybridoma antibody (antibody, V domains shown)
VH: QVQLQQPGAELVTPGASVKLSCKASGFTFTNNWMHWVKQRPGQGLEWIGMIHPNSGITNINEKFKNKATVTVDKSSSTVYIQLSSLTSEDSAVYYCRSDGTYEGYFDYWGQGTPLTVSS
VL: DIVMTQSQKFMSTSVGDRVSVTCKASQNVGTAIVWYQKKPGQSPKTLIYSASTRYTGVPDRFTGSGSGTDFTLTISNVQSEDLAEYFCQQYSSSPLTFGSGTKLEIK
notes: murine hybridoma IgG
Turning to B5, the EC50 in assay [5] is 0.25 nM; in assay [6], ~10 nM. In addition, the IC50 in assay [7] is 0.95 nM.

Values taken from patent US12365732 (23ANDME, dated 2025).
